Measured values as given in patent US20260242478A1 (published 2026).

B1: Phage-3855 (peptide)
peptide: NYVKCRPAWMCDGF
B2: Phage-3857 (peptide)
peptide: SDHLCIPRWMCVGF
B3: Phage-3864 (peptide)
peptide: NAGYCVPTWMCDGF
B4: Phage-3859 (peptide)
peptide: EHARCTPAWMCAGF
B5: Phage-3866 (peptide)
peptide: GQGSCVPMWMCEGF
B6: Phage-3868 (peptide)
peptide: PYTLCRPAWMCQAM
B7: Phage-3861 (peptide)
peptide: VQIVCSPTWMCTGF
B8: Phage-3862 (peptide)
peptide: PSQMCVPTWMCVGF
B9: Phage-3865 (peptide)
peptide: MGVECKPLWMCTGL
B10: Phage-3856 (peptide)
peptide: YELACVPRWMCYGL
B11: Phage-3863 (peptide)
peptide: QLGACIPWWMCNGF
B12: Phage-3858 (peptide)
peptide: GSHYCVPQWMCGGF
B13: Phage-3869 (peptide)
peptide: LEIFCVPMWMCEGL
B14: Phage-3860 (peptide)
peptide: IESICRPAWMCERL
B15: Phage-3867 (peptide)
peptide: LSWECVPQWMCTGL
B16: Phage-3873 (peptide)
peptide: LQQLCVPNWMCVGF
notes: tested as crude phage supernatant
B17: Phage-3879 (peptide)
peptide: VTPACMPRWMCEGF
notes: as for B16
B18: Phage-3878 (peptide)
peptide: TAPMCNPPWMCYGL
notes: as for B16
B19: Phage-3882 (peptide)
peptide: MDVWCVPQWMCDGF
notes: as for B16
B20: Phage-3872 (peptide)
peptide: STMLCSPSWMCFGF
notes: as for B16
B21: Phage-3877 (peptide)
peptide: EDALCVPQWMCSGF
notes: as for B16
B22: Phage-3880 (peptide)
peptide: IEKQCVPQWMCDGF
notes: as for B16
B23: Phage-3870 (peptide)
peptide: AVIMCEPSWMCEGF
notes: as for B16
B24: Phage-3881 (peptide)
peptide: ESKLCIPDWMCILL
notes: as for B16
B25: Phage-3876 (peptide)
peptide: SNVMCRPSWMCAGF
notes: as for B16
B26: Phage-3874 (peptide)
peptide: YDRLCSPPWMCSGF
notes: as for B16
B27: Phage-3871 (peptide)
peptide: EGILCKPSWMCNDF
notes: as for B16
B28: Phage-3883 (peptide)
peptide: VDYVCRPSWMCSGI
notes: tested as crude phage supernatant; The number 3883 of the label stands in r4366
B29: Phage-3875 (peptide)
peptide: PQIKCIPAWMCDGF
notes: as for B16
B30: Phage-3889 (peptide)
peptide: IDTLCVPWWMCSGF
notes: tested as crude clonal phage supernatant
B31: Phage-3887 (peptide)
peptide: ILRHCTPEWMCIGL
notes: as for B30
B32: Phage-3890 (peptide)
peptide: DQHACRPEWMCVGF
notes: as for B30
B33: Phage-3892 (peptide)
peptide: DYWYCQPAWMCTGL
notes: as for B30
B34: Phage-3886 (peptide)
peptide: TEHQCVPAWMCGGF
notes: as for B30
B35: Phage-3891 (peptide)
peptide: VVYTCVPSWMCTGL
notes: as for B30
B36: Phage-3895 (peptide)
peptide: EWIMCTPPWMCHGF
notes: as for B30
B37: Phage-3885 (peptide)
peptide: GMVRCVPDWMCYGF
notes: as for B30
B38: Phage-3896 (peptide)
peptide: PDVHCVPRWMCDGL
notes: as for B30
B39: Phage-3884 (peptide)
peptide: TEPACVPPWMCVGW
notes: as for B30
B40: Phage-3897 (peptide)
peptide: LTLKCAPAWMCNGF
notes: as for B30
B41: Phage-3888 (peptide)
peptide: LQIRCQPVWMCHGF
notes: as for B30
B42: Phage-3893 (peptide)
peptide: LVPRCLPEWMCTGF
notes: as for B30
B43: Phage-3894 (peptide)
peptide: DLQMCLPKWMCVGF
notes: as for B30
B44: Phage-3911 (peptide)
peptide: ESRACVPNWMCHGL

molecular target: T1, PSMA Fab (biotinylated (site not stated)); experiment: phage ELISA; biotinylated PSMA Fab on neutravidin plate, clonal phage supernatant, anti-M13 HRP detection;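 also: wells preincubated with PSMA antigen in blocking buffer or with blocking buffer only before clonal phage were added for a short incubation, then bound phage detected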
T1 construct: Biotinylated PSMA Fab captured on neutravidin coated plates in the phage ELISA; also called Anti-PSMA Fab; 006 PSMA Fab

Binder	Phage binding ELISA signal, Anti-PSMA Fab
B1	1.18

molecular target: T2, Anti-PSMA Fab; experiment: as above
T2 construct: In the phage ELISA the PSMA Fab was biotinylated and captured on neutravidin coated plates; also called 006 PSMA Fab
Protocol: (§1) Clonal phage were harvested as crude supernatants and screened via standard ELISAs. […] Prior to the addition of clonal phage. wells were incubated with blocking buffer and PSMA antigen or blocking buffer alone. Without washing or aspirating, clonal phage supernatants were then added to the wells and incubated for a short time. Wells were then washed followed by detection of bound phage using a horse radish conjugated anti-M13 antibody.

Binder	Phage binding ELISA signal, Anti-PSMA Fab
B2	1.18
B3	1.17
B4	1.17
B5	1.16
B6	1.16
B7	1.17
B8	1.17
B9	1.16
B10	1.18
B11	1.17
B12	1.17
B13	1.16
B14	1.17
B15	1.16

molecular target: T3, PSMA Fab; experiment: clonal phage ELISA on biotinylated PSMA Fab captured on neutravidin plates, anti-M13 HRP detection;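 also: crude clonal phage supernatants tested, before phage were added, wells were pretreated with PSMA antigen in blocking buffer or with blocking buffer only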
T3 construct: also called Anti-PSMA Fab; 006 PSMA Fab
Protocol: as §1

Binder	phage binding ELISA signal
B16	1.15
B17	1.13
B18	1.13
B19	1.12
B20	1.15
B21	1.14
B22	1.13
B23	1.16
B24	1.13
B25	1.14
B26	1.15
B27	1.15
B28	1.12
B29	1.14

molecular target: T4, 006 PSMA Fab (biotinylated (site not stated)); experiment: clonal phage ELISA; biotinylated PSMA Fab on neutravidin plate, blocking buffer alone, anti-M13-HRP detection;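 also: crude clonal phage supernatants added without washing to wells preincubated with PSMA antigen or with blocking buffer alone, briefly incubated, then washed before bound phage detection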
T4 construct: also called Anti-PSMA Fab

Binder	Phage binding ELISA signal, Anti-PSMA Fab
B30	1.1
B31	1.11
B32	1.1
B33	1.1
B34	1.11
B35	1.1
B36	1.09
B37	1.11
B38	1.08
B39	1.12
B40	1.08
B41	1.1
B42	1.09
B43	1.09

molecular target: T3, PSMA Fab; experiment: clonal phage ELISA on captured PSMA Fab, wells pre-incubated with PSMA antigen as competitor
Protocol: as §1

Binder	phage binding ELISA signal
B16	0.0902
B17	0.0611
B18	0.0701
B19	0.0645
B20	0.073
B21	0.0648
B22	0.0745
B23	0.102
B24	0.0662
B25	0.132
B26	0.0629
B27	0.0803
B28	0.0618
B29	0.0851

molecular target: T5, PSMA Fab (006 PSMA Fab); experiment: phage ELISA on captured PSMA Fab pre-incubated with the competitor PSMA antigen, anti-M13-HRP detection
T5 construct: also called Anti-PSMA Fab
Protocol: as §1

Binder	phage binding ELISA signal, Anti-PSMA Fab in the presence of PSMA
B44	0.06

molecular target: T4, 006 PSMA Fab; experiment: clonal phage ELISA; biotinylated PSMA Fab on neutravidin plate pre-incubated with PSMA antigen as competitor, anti-M13-HRP detection
Protocol: as §1

Binder	Phage binding ELISA signal, Anti-PSMA Fab in the presence of PSMA antigen
B30	0.0774
B31	0.0689
B32	0.0789
B33	0.0585
B34	0.0809
B35	0.062
B36	0.0638
B37	0.0613
B38	0.0633
B39	0.128
B40	0.0619
B41	0.0801
B42	0.0848
B43	0.0639

molecular target: T5, PSMA Fab (006 PSMA Fab); experiment: clonal phage supernatant on biotinylated PSMA Fab captured on neutravidin plate, anti-M13-HRP detection;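 also: before phage were added, wells received PSMA antigen in blocking buffer or blocking buffer alone, with no wash in between, followed by a short phage incubation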
Protocol: as §1

Binder	Phage binding ELISA signal, Anti-PSMA Fab
B44	1.03

molecular target: T1, PSMA Fab; experiment: phage ELISA; biotinylated PSMA Fab on neutravidin plate pre-incubated with PSMA antigen as competitor, anti-M13 HRP detection;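 also: crude clonal phage supernatants tested, compared against control wells pre-incubated with blocking buffer only, without PSMA antigen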
Protocol: as §1

Binder	Phage binding ELISA signal, Anti-PSMA Fab in presence of PSMA
B1	0.0759
